Results: publication PMC4712673
Where a chain is given by its changes, count along the chain named. Numbers in names are those of the source. Read-outs that look alike come from different tables or passages of the source.

Experiments:
Experiment in all cases: EMSA
Cus2p WT [1] = molecular target: T1, Cus2p WT (Saccharomyces cerevisiae, UniProt P53830 1-285)
T1 sequence: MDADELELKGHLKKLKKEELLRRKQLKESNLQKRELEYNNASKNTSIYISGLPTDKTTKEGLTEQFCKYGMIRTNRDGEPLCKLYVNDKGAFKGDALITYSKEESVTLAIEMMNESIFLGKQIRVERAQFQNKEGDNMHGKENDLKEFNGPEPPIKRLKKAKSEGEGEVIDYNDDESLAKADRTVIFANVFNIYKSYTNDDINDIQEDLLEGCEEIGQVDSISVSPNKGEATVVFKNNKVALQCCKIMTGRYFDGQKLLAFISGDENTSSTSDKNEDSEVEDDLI

Cus2p Y48D = molecular target: T2, Cus2p Y48D (Saccharomyces cerevisiae, UniProt P53830 1-285, Y48D)
T2 sequence: T1 sequence with Y48D

Cus2p WT [2] = molecular target: T1, Cus2p WT; remark: listed apart in the source
Cus2p WT [3] = molecular target: T1, Cus2p WT; remark: listed apart in the source

B1: stem IIa-stabilized U2 core RNA (structured_RNA)
RNA: GUAGUAUCUGUUCUUUGCGGUGUAACAACCGCAAUGACCUCAAUGAGGCUCAUUACCUUUUAAAUACACAUUUUUUGG
**Q.** Does B1 bind (Cus2p WT [1])?
**A.** Result: binds

B2: stem IIc-stabilized U2 core RNA (structured_RNA)
RNA: GUAGUAUCUGUUCUUUUCAAUGUAACAACUGAAAUGACCUCAAUGAGGCUCAUUACCUUUUCAGUUGUUACAAUACACAUUUUUUGG
**Q.** Does B2 bind (Cus2p Y48D)?
**A.** Result: binds

**Q.** Does B2 bind (Cus2p WT [2])?
**A.** Result: binds

B3: G53A U2 core RNA (structured_RNA)
RNA: B2 RNA with C62A, G64U
**Q.** Does B3 bind (Cus2p WT [3])?
**A.** Result: binds
